{
  "source": "the DeepSol protein solubility set",
  "data": [
    {"test": "soluble on expression in E. coli; label from the status in PepcDB or PDB records", "values": [
      {"sequence": "MGSDKIHHHHHHMAVVCRRITASSRTYSLSALTRCLQEEAAAIAVAAERLSSSQVEKALVLLERCSDQRAKLVITGVGKSGIVARKIAATFSSIGLMALYLNPLDAMHGDLGVVAQEDVCLLLSNSGETAELLEVLPHLKRRGTARIALVGKPDSSLARGSDVVLEASVDREVCPLNLAPTASTAVAMAIGDALAAIWMERRNISPADFAFNHPAGSLGKQLTLTASDLMVPVEKVQPLQPNTSLQEVICKLTQDGIGSGWVEDPSTAGLLLGLITDGDLRRALRDHSAENWASLSAAELMTADPITVDADLLAVEAIKQMECNRRKPISVLPVVGPDSSGNLLLGLLRLHDLIQAGLT", "soluble on expression in E. coli": "not soluble"},
      {"sequence": "MGSDKIHHHHHHMAYFAEIFQIPFEESWGYVTNGGTEGNMFGCYLARELFPDSTLYYSKDTHYSVGKIAKLLQMKSCVIESLDNGEIDYDDLIHKIKTNKESHPIIFANIGTTMTGAIDDIEMIQERLAQIGIMRRDYYIHADAALSGMILPFVDHPQAFSFAHGIDSICVSGHKMIGSPIPCGIVVAKRQNVERISVDVDYISTRDQTISGSRNGHTVLLMWAAIRSQTNLQRRHRIQHCLKMAQYAVDRFQAVGIPAWRNPNSITVVFPCPSEHIWKKHYLATSGNMAHLITTAHHRDTRQIDSLIDDVIFDLQGASKRTVGF", "soluble on expression in E. coli": "not soluble"},
      {"sequence": "MGSDKIHHHHHHMCNSYLEYTAAGVSDLRPYQPGKPLAELERELGIRDAIKLASNENPLGPSPLALAAVREVLPALAQYPEGSAPELRALLARQLDLDPGQFIFGNGSDQVVELAVRALAGPGTEVIVSQYAFAAYAIAAQASGATVRVAPARDYGHDLDAMASLLNANTRLVFIANPNNPTGTYLTADALETFIDSVPSHALVVLDEAYLELMDAADYPDGRRWLRRFGNLMLTRTFSKAYGLAGLRCGYGIGHPDLMAVLERVRQPFNVNTLAQVAAHAALTDRAHLQATLANNRQGIVALRDGLCNLGLTILPPAGNFTAFAVPGGGQRVYEALLLRGVIVRPLTPYGMPDHLRVSVGLPVENQRFLTMLGEVL", "soluble on expression in E. coli": "not soluble"},
      {"sequence": "MGSDKIHHHHHHMDDFDTPVTGNAYGNNTIKEQRTISIANLKEKYSSVISANQFQTVTEETRISGVVVGDDESGNIYKQLIVADETGAIVVGINSTGIYANCPVGQKVVIDCENLNVGGYGMQAQIGTTYKGAIGRMDLAVWLDHVRVINKPQLWYDELIPMELTGAQLKAYDKDLAPVLVMFKDVTIKEADGTATFAPEDLKDGGNGVNRTLVLDDNSTLTFRTSTYANFSTEVMPTGKINVIGILSRYNSTWQIVARTYSDIQRNN", "soluble on expression in E. coli": "not soluble"},
      {"sequence": "MGSDKIHHHHHHMDELLEKAKKVREAWDVLRNATTREKNKAIKKIAEKLDERRKEILEANRIDVEKARERGVKESLVDRLALNDKRIDEMIKACETVIGLKDPVGEVIDSWVREDGLRIARVRVPIGPIGIIYESRPNVTVETTILALKSGNTILLRGGSDALNSNKAIVSAIREALKETEIPESSVEFIENTDRSLVLEMIRLREYLSLVIPRGGYGLISFVRDNATVPVLETGVGNCHIFVDESADLKKAVPVIINAKTQRPGTCNAAEKLLVHEKIAKEFLPVIVEELRKHGVEVRGCEKTREIVPDVVPATEDDWPTEYLDLIIAIKVVKNVDEAIEHIKKYSTGHSESILTENYSNAKKFVSEIDAAAVYVNASTRFTDGGQFGFGAEIGISTQRFHARGPVGLRELTTYKFVVLGEYHVRE", "soluble on expression in E. coli": "soluble"},
      {"sequence": "MGSDKIHHHHHHMDEQIKKAIEAHALAEYPRECCGLVVKTESGEIYVRCRNLAAVPTDQFALASEDYAAAEDMGEIVALVHSHPGASAQPSEADRAMCERSGIEKWVIVSLGVQADGSIGIDDWCEFEPAGYVTRLIGRQFVHGVHDCYAIVRDWYLAERGVLLPDFEREDDWWNDGRSNLYLNHYQDAGFLDVGRGVTLQVGDVLLMQIRSKNDVPNHAGVYLGDGQFLHHMHGRLSARAVWGGMWADCCTTVLRYAGGRK", "soluble on expression in E. coli": "not soluble"},
      {"sequence": "MGSDKIHHHHHHMDEQTHTHLSRRRTLTASAGVLSAGLAGCITSGDTDGDPESGPTVAVASFFSFYDFARKIVADTPITVRNLIPTGLHGHGWEPNASITKEILDADALIHVGPDFQPWVDRAIESLDDDDADTRRINVRDGVELVDLAASLDRDEEGIGQNRGKDPHFWLDPNRAKQSIDNLTEGFVQLAPSHENTLRTNAAAYKSGVLDELDDAYAAIFDRADRDVVQLAAHNAFQYLGTAYDIEMRPLVVNLAASGTVKASDIMDAKQTIDDNDITYIGAAVFETRRPAEQLLSETDVEAYYPVTPYAGVREDWVQQGWGYEEIARNINMPTFKLLLGNAAPDDVGGAEWNATWRNFE", "soluble on expression in E. coli": "not soluble"},
      {"sequence": "MGSDKIHHHHHHMDFRQFEYVKTIAEEKSISRAAERLYISQPSLSQYIIRLENSLGVKLFDRTSATITLTFAGEKYIETARNIINLNNQLTKELNDIANLSKGRVIIGVPSQAGRYILPLVIPKFYKEYPNIEIIVEENIVSELEKMLLEGKIDIAILTLPVQHEKITYESIMNERIFLIAPKKHPICSVDGRISFNFIRNEKFILLKKGQRIRLIVDDIFSRIGAKPNIILEITNLDAAYRMASSGMGFTIVPENVLYLLNTNGKENDFIIDSLEHTLVVAYRKGEYLTRASREFIANLKGVMKMDYNNKNHNSVSYKKIYID", "soluble on expression in E. coli": "not soluble"},
      {"sequence": "MGSDKIHHHHHHMDKALLHFDNSYARDLEGFYAPWQAATAPAPRLLLLNQALAEELGLDSATLDDELGAAIFSGNQVPEGALPLAQAYAGHQFGHFSPQLGDGRALLLGELIDRHGRRRDMQLKGSGRTPFSRGGDGKAALGPVLREYVIGEAMHALGIPTTRALAAVTTGETVRRETWLPGAILTRIAASHIRVGTFQFFAARNENVRVKQLADYTIARHYPPLKGADNPYLELFAAVSAAQAALIARWMLVGFIHGVMNTDNMSIAGETIDYGPCAFMDNYDPETVFSSIDAHGRYAYAHQPLIAQWNLTRFAETLIDLVHPDPDEAARLLTEQLNEFPKLYTRHWLDGMRAKMGLATAEDGDLALAQALLSAMEGQNADFTQVFRGLSAAVRGDPAQVRAHFVNQAPFDLWLAQWQARLAHESATAEARAEAMDQVNPLYIPRNHKVEEALAAATLNQDLTPFKALLAVLERPFAERPGLESYTQPAPEDFGPFKTFCGT", "soluble on expression in E. coli": "not soluble"},
      {"sequence": "MGSDKIHHHHHHMDKDERLHYLDSLERLRGSKVLVYFAYTPLDDSILVPLYEQLKAIGHTEKIDLLLHSYGGAVDTPYKVVMLIREFCNEFGVIVPFVAKSAASMLVLGADEVVMGPISELGPIDPLIKHPIYKELWVPVQAIRYCIDYLQRSIESNPNPELVTGIITPMINKLDPWLIGDYEKALKASHQYAEALLSRYMLKDNPELVPVVTRALTEGYFSHGYPIGRQEAKELGLRVTEAEDELWDVIWSLYRGYEELFSTCDSGDRV", "soluble on expression in E. coli": "not soluble"},
      {"sequence": "MGSDKIHHHHHHMDKIRVIELGSNISAPLVGTILADLGAEVIKVEPPPYGDDRRRVKPEINGISVYFASTNRGKKSVVINLKSDEGYEIFQRLVKTADVIVTNYRPSALKRLKVDYESVKRINPKIIYCSITGFGNLTEEADRPAYDPIILALSGLMDMTGEENPVKFATSISDITTGLLATVMILWALNKGGPTFIDVPMIYTQFYLTLEDAYMYLNTGKVPKRMGSAHRYLVPYQAFKVVDGYIYVAVFNDEQYLKLCKALNREDLCKFDTLQKRVENRDYLIKELGKIFEKNTRDYWVDLLSKADVPVAPVLSLEQAFKKYGNRLVYEIEGVKYIDFPINITSNKSKAPRLGENTKEVLLELGYSEGEINRLAEKGIIMLI", "soluble on expression in E. coli": "not soluble"},
      {"sequence": "MGSDKIHHHHHHMDLDRLQTFLKVVQYGSFQQVAAREYRSQRTVSKQMTQLENELKVTLFDRGQNRIQLTPQGRLFWASAQDIVNNYTTALTELRQFNVPTDQILRVGYFSAFEQRLLLPALYDLKQQHSELQLVVRQGSNEHLAQQVADGSLDLALSINYGRPAVTPESQLTAVPIYHNQMVIGVSRLNPLSRLSQLPPSALATLPILYYSPESSTFLLESFLASAPFIQDYEQIRRVSSAEQMHLLVALNQALAFYPAGLVPTKHDEQVAYLPITDAAQQGYDIVALLKSNRSRPLIAKLVQRLKANAKSDE", "soluble on expression in E. coli": "not soluble"},
      {"sequence": "MGSDKIHHHHHHMDLTHIHPEFRHILGMSDKDRMAFLDEPRWIGYAQANRLLDNLRSLMEKPVRPRMPNLLIVGDSNNGKTTVIRRFQKLHGEGYVNEDAEPVKPVIVSEAPPSADEKGLYIAILERFWTPYRATDSASKLRYQVVHLMRDCHVRILVIDEFHSLLTGTVTKQREVMNAIKLLCNELAIPIVGVGIREAVRVLHTDPQHASRFDVVTLPPWELNPEFQQLVASFERVLPLKKPSLLHQSETVSLLFAISEGNLGNLHRLLVECAVEAIKTGTEKIDKSIIEGKQWLRPTHGIRELV", "soluble on expression in E. coli": "not soluble"},
      {"sequence": "MGSDKIHHHHHHMDLTTAQVSRLISELETRLGTKLIQRSTRQQALTDIGATYAERCRQVISMVDEAEAEVTGTASKPKGRLRVLSMGSFGHHYVFPVMAEFCKHYPELTVEYTTSQYVPDLLAKGVDVSLYLTESLTDSRFVARRIGTIFSVLCASPAYLEKHGVPKSPEDLKNHACLRLVNPSITPDWHLLNANGESYQIDIGGQLIADNPELLLDVVQQDMGVALLPMFSALDAVQNGRLCHILPEWRSPDIGVYTLLPSRHFIDAKTRAWLDWVEEYISPKIEMDASYFYK", "soluble on expression in E. coli": "not soluble"},
      {"sequence": "MGSDKIHHHHHHMDMLSFELIRDGNRPLYEQLYQQIRQEIIEGRLAYGTKLPSKRKLGQFLNLSQTTIELAYQQLVAEGYVESVSRKGYFVLAYEELAYVKTTPLPTSQRSNQQPAMRYDFHPSKIDGSSFPFSRWRKHAKDVIDEQHQSLVSLGHPQGDLSLRLEIATYLYHSRGVVCSPEQIIIGSGVEQLLPHIVFLLGKTTTYGIEDPGYHATRLILKSHERSAVPIPVDQNGLVIPSLVQSPVDVMYVTPAHQFPSGSILSVNRRRQLLNWAAASDRRYIIEDDYDSEFRYSGKSIPSLHSMDSERVIYLSTFSKSLMPSLRIGYMVLPRPLLERYQTEFPYYTCSVSRFDQTILTRFMKEGDFEKHLNRMRKIYRRKLDVVVHALRDVPFLKLTGESAGLHVVLSVSNGMGEQELLRRAKDSSIQVYGLSDYAQLPLSTAYPQIVLGFASLTEQQLMQGLTELVTAWQLK", "soluble on expression in E. coli": "not soluble"},
      {"sequence": "MGSDKIHHHHHHMDPRLLEYYNRELSYLRETGAEFAARHPKVAARLGMQGTDIADPYVERMVEAFSFLTARTQLKIDAEFPRFTQRLLEVVSPNYVTPTPSMSVAQLHPDTEEGDLAKGFTVPRDTAFFSAIPEGESTACQFRSSQDVTLWPLAIEEARLTAAPPDMPALHRYLPANIHVAGALRITLRTFGELTFSQLAGLDRLPFYLCGEERTASHLLELLHTSAIAPLAGIPGHFDGALDVNLQQPVMYEGLEPDQGLLPLAWNVFHGHNLLHEYFACPERFYFFTPTGLSAGLQKIDGGVAEIVILLNRLPPDWLIHQTNAAQFSLFCTPVINLFPRVTARIDVTHSTTEQHLVVDRTHPLDYEVFSVQEVEGLETDTTRKMAFRPLYHTRNNDEGNHGRYFSLRREPRRLSENARRYGTRTPYTGSEVFLSLVDQYEAPYPENLRHITITAMVTNRDLPCLIARNGRDDLTVDAAIPVAGVGLIRPPRSPQPPMAEREMAWRLIRQLSFNYLPLADLDHRTGGQALRDLLNLFIPAHDSPQSRQVRSLIGCKTTPVTRRLPGSGLLVYGRGVSCELTVDEEGFSGISPYLFGLVLEHYIARHVSINTFSQMTLHSMQRGKIMTWPVRAGQRGSV", "soluble on expression in E. coli": "not soluble"}
    ]}
  ]
}
